Columns and labels:
[1] = biological target: HA of influenza A/Moscow (A/Moscow/10/99-like (H3N2)) on infected cells (influenza A virus A/Moscow/10/99-like (H3N2))
[2] = biological target: HA of influenza virus New Caledonia (H1N1) on infected cells (influenza A virus New Caledonia (H1N1))
[3] = biological target: HA of influenza A/Beijing (A/Beijing/262/95-like (H1N1)) on infected cells (influenza A virus A/Beijing/262/95-like (H1N1))
[4] = biological target: HA of influenza A/Sydney (A/Sydney/5/97-like (H3N2)) on infected cells (influenza A virus A/Sydney/5/97-like (H3N2))
[5] = biological target: hemagglutinin-neuraminidase of Sendai virus (SV) on infected cells (Sendai virus)
[6] = biological target: HA of influenza virus Yamanashi (B strain) on infected cells (influenza B virus Yamanashi)

Chain of NKp46D1-Ig fusion protein (membrane distal domain of NKp46 fused to Fc of human IgG1) (O76036 22-120 Q82K): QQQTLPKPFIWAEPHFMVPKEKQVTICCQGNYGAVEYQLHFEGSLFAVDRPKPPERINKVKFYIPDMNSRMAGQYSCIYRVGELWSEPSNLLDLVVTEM
Chain of NKp44-Ig fusion protein (O95944 22-190 M75V limits assumed): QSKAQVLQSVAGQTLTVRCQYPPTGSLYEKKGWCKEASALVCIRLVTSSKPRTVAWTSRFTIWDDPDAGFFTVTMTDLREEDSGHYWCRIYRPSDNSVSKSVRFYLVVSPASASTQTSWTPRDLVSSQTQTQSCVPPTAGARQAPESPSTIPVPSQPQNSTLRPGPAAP
Chain of NKp46-Ig fusion protein (O76036 22-254 Q82K): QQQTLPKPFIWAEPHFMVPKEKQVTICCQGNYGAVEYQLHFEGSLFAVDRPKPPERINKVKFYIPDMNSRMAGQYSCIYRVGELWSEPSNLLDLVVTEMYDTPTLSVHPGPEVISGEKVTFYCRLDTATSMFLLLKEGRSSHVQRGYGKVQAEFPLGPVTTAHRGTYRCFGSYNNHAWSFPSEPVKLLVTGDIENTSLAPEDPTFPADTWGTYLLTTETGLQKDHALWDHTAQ

Row | Molecule | MFI [1] | MFI [2] | MFI [3] | MFI [4] | MFI [5] | MFI [6]
1 | NKp46-Ig fusion protein (from UniProt O76036 22-254) (Fc fusion) | 20 | 315 | 44 | 58 | – | –
2 | NKp46D1-Ig fusion protein (membrane distal domain of NKp46 fused to Fc of human IgG1) (from UniProt O76036 22-120) (Fc fusion) | 8 | 5 | 7 | 10 | 8 | 8
3 | NKp30-Ig fusion protein (from UniProt O14931 19-135) (Fc fusion) | 8 | 10 | 4 | 8 | – | –
4 | NKp44-Ig fusion protein (from UniProt O95944 22-190) (Fc fusion) | 24 | 518 | 128 | 120 | 350 | 117
5 | NKp46D2-Ig fusion protein produced in COS cells (membrane proximal domain of NKp46 fused to Fc of human IgG1) (from UniProt O76036 121-254) (Fc fusion) | 50 | 420 | 77 | 100 | 95 | 51
6 | CD99-Ig fusion protein (Fc fusion) DGGFDLSDALPDNENKKPTAIPKKPSAGDDFDLGDAVVDGENDDPRPPNPPKPMPNPNPNHPSSSGSFSDADLADGVSGGEGKGGSDGGGSHRKEGEEAD | 0 | 0 | 0 | 1 | 0.5 | 0
